Test results as given in patent US12637662B2, “Cells, islets, and organoids that evade immune detection and autoimmunity, methods of production and use thereof” (SALK INSTITUTE FOR BIOLOGICAL STUDIES, priority 2018, dated 2026).

Tests used:
[1] = test system: ERRγ (ESRRG), mitochondrial and insulin gene expression; experiment: Quantitative RT-PCR gene expression in hiPSC-derived islet organoids/HILOs; format: cell-based, human; settings: hiPSC-derived islet organoids, MCS or HILOs
Experimental: hiPSCs were cultured in matrigel-coated plates. Single cell suspensions were prepared using Accutase, washed in PBS, and collected by centrifugation (1000-1300 rpm for 5 min). Cells were re-suspended with 3D Kelco Gel Stem TeSR™ Base Medium in the presence of the ROCK inhibitor (10 μM Y-27632, StemCell) for 5 to 7 days until spheroids reached 50-100 μm diameter. The medium was then replaced with 0.015% Kelco gel containing 0.3% methylcellulose and supplemented with 100 ng/ml human Activin A (R&D Systems), 3 μM CHIR99021 (Axon or Selleckchem) in differentiation medium (S1) for 1 day, and then 100 ng/ml human Activin in differentiation medium (S1) for another 2 days (Stage 1, Definitive Endoderm). Subsequently, the medium was replaced with differentiation medium (S2) with 50 ng/ml FGF7 (R&D Systems) for 2 days, differentiation medium (S3) with 50 ng/ml FGF7, 0.25 μM SANT-1 (Sigma), 1 μM Retinoic Acid (Sigma), 100 nM LDN193189, 10 μM Alk5 inhibitor II and 200 nM of the ß-Amyloid Precursor Protein modulator TPB for 3 days, then 50 ng/ml FGF7, 0.25 μM SANT-1 (Sigma), 1 μM Retinoic Acid (Sigma), 100 nM LDN193189, 10 μM Alk5 inhibitor II and 100 nM of the ß-Amyloid Precursor Protein modulator TPB for 2 days. Subsequently the medium was replaced with differentiation medium (S4) with 0.25 μM SANT-1, 50 nM retinoic acid, 100 nM LDN193189, 10 μM Alk5 inhibitor II, 1 μM T3 for 3 days. Subsequently, the medium was replaced with differentiation medium (S5) with 100 nM LDN193189, 100 nM […] inhibitor XX (GSiXX, Millipore), 10 μM Alk5 inhibitor IL, 1 μM T3 for 7 days. Subsequently, the medium was replaced with differentiation media (S5) with 10 μM Trolox (Calbiochem), 2 μM R428 (Selleckchem), 1 mM N-acetyl cysteine, 10 μM Alk5 inhibitor II, 1 μM T3 for an additional 7 to 20 days. […]
Total RNA was extracted using TRIzol reagent (Invitrogen) and RNeasy KIT (Qiagen). […] Real time quantitative RT-PCR (qPCR) was performed using SYBR Green (Bio-Rad).

[2] = test system: insulin-expressing cells of HILOs; experiment: Mitochondrial content (MitoTracker) and insulin-GFP by flow cytometry; format: cell-based, human
From the text: FIGS. 8A-8H provide images, graphs, a schematic and a diagram showing results related to WNT4 mediated insulin-GFP expression and WNT4-driven metabolic maturation. FIG. 8A presents representative images of mitochondrial content, indicated by MitoTracker (red) staining, in PBS and WNT4 treated HILOs (scale bar, 100 μm). FIG. 8B presents graphs of flow cytometry quantification of insulin expression (GFP) and mitochondrial content in HILOs treated with recombinant human WNT4 (rhWNT4), WNT5A (rhWNT5A), or conditioned medium (CM) from control or WNT5A overexpressing fibroblasts (n=3). Error bars represent SEM. *p<0.05. FIG. 8C presents a gene ontology of transcriptional changes induced by WNT4 treatment (100 ng/ml WNT4 from day26 to day33) in HILOs. […] Error bars represent SEM. *p<0.05. FIG. 8E presents a Venn diagram showing overlap between WNT4-induced increases in chromatin accessibility in GFP^+ cells and increases in HILO gene expression (upper panel), and gene ontology pathways enriched in the intersection gene set. […] For FIGS. 8G and 8H, postnatal islets (day P11-14) from WT and β cell specific ERRγKO mice were cultured with or without rhWNT4 (100 ng/ml) for >5 days.

B1: WNT5a: recombinant human Wnt5a protein (protein, UniProt P41221 62-380, looked up)
Protein Wnt-5a: IIGAQPLCSQLAGLSQGQKKLCHLYQDHMQYIGEGAKTGIKECQYQFRHRRWNCSTVDNTSVFGRVMQIGSRETAFTYAVSAAGVVNAMSRACREGELSTCGCSRAARPKDLPRDWLWGGCGDNIDYGYRFAKEFVDARERERIHAKGSYESARILMNLHNNEAGRRTVYNLADVACKCHGVSGSCSLKTCWLQLADFRKVGDALKEKYDSAAAMRLNSRGKLVQVNSRFNSPTTQDLVYIDPSPDYCVRNESTGSLGTQGRLCNKTSEGMDGCELMCCGRGYDQFKTVQTERCHCKFHWCCYVKCKKCTEIVDQFVCK
For B1, the “expression of ERRγ (ESRRG) and mitochondrial genes” value [1] was “induced”, the “proportion of insulin expressing cells” value ([2]; GFP sorting, HILOs with and without WNT treatment) was “not affected” and the “mitochondrial content / number” value ([2]; MitoTracker, HILOs / insulin-expressing cells) was “increased the mitochondrial content”.
